T1: EphB1 (human, UniProt P54762 18-984)
T1 construct: also called cbe_3810791
T1 sequence: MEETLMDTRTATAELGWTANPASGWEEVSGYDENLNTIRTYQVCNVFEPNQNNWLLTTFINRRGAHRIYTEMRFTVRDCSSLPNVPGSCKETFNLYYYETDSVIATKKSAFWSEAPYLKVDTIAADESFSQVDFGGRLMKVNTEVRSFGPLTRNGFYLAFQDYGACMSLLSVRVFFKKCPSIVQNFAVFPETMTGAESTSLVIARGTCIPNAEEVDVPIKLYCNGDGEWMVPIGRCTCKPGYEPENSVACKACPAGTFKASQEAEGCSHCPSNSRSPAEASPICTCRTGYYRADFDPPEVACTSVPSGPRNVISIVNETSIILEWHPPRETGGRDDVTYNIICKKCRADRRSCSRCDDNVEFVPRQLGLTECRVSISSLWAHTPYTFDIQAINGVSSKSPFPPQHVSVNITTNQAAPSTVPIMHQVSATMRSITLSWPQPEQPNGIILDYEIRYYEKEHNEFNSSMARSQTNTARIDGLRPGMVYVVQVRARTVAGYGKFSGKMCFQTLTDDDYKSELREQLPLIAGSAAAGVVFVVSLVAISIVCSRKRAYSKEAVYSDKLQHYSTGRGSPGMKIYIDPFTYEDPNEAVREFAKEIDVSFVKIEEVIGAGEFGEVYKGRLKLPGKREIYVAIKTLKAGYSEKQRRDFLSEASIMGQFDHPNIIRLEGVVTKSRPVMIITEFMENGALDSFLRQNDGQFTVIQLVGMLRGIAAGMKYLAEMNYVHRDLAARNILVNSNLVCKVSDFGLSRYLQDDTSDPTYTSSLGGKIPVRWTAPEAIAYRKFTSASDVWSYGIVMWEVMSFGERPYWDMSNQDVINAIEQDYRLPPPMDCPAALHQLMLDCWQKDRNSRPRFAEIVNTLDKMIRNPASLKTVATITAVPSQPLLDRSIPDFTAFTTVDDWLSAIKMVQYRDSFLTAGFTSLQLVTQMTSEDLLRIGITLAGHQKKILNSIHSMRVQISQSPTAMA

T2: pumilio homolog 1 (Drosophila) (human, UniProt Q14671 2-1186)
T2 construct: also called PUM1; cbe_4540466
T2 sequence: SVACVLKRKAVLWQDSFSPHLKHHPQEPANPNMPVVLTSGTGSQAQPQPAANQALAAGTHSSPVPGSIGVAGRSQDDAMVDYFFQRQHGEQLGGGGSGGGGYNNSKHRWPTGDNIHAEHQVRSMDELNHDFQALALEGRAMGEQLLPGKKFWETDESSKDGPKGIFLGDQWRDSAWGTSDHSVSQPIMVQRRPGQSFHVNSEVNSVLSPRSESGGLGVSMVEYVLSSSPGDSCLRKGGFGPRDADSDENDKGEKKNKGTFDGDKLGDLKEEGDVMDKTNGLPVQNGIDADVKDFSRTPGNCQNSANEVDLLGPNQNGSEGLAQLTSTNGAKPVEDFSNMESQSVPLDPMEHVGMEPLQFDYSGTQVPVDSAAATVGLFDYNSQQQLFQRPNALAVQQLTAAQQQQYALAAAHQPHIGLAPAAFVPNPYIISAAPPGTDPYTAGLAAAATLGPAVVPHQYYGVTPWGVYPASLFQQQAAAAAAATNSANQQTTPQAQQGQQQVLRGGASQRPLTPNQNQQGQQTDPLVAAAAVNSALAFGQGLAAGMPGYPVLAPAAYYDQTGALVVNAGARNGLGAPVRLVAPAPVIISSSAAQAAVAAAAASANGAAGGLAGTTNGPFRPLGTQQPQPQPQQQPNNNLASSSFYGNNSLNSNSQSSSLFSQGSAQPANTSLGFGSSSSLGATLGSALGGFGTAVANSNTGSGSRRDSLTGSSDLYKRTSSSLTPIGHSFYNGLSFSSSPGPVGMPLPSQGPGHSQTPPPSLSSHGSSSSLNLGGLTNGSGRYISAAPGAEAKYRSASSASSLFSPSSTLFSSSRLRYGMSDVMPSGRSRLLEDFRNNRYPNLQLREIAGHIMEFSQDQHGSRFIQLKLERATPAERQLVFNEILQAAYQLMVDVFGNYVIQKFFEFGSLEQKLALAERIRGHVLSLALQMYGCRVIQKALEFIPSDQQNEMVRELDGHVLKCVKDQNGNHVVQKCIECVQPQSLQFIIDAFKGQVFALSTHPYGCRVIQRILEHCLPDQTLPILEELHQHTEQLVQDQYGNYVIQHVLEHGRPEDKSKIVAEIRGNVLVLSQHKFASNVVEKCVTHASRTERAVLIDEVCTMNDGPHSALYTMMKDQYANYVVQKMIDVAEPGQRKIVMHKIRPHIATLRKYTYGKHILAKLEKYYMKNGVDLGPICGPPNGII

T3: hypothetical protein FLJ20259 (human, UniProt Q2TAL8 1-776)
T3 construct: also called cbe_1469980
T3 sequence: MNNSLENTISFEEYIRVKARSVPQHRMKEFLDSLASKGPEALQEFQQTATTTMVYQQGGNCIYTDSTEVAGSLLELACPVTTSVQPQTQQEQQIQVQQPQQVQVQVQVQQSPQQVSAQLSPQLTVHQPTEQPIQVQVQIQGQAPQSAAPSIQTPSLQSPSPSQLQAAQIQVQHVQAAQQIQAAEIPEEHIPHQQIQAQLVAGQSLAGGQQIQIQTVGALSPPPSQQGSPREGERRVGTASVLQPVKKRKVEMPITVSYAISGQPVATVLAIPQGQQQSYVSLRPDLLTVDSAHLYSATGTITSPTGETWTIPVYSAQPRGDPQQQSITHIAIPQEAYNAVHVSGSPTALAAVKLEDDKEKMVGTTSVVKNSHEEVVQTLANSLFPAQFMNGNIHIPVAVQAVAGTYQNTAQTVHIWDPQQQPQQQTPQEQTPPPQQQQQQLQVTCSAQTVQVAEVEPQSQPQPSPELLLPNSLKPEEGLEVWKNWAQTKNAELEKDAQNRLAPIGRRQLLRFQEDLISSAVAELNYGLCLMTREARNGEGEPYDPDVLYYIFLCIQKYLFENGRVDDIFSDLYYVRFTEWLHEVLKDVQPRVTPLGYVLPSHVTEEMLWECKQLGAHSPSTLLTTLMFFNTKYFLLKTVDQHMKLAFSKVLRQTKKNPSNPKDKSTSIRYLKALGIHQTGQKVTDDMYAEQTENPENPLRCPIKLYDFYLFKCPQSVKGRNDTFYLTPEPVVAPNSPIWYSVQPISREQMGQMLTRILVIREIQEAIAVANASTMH

T4: testis-specific protein NYD-TSP1 (human, UniProt Q9BXG8 1-430)
T4 construct: also called Hs.98226; cbe_3826540
T4 sequence: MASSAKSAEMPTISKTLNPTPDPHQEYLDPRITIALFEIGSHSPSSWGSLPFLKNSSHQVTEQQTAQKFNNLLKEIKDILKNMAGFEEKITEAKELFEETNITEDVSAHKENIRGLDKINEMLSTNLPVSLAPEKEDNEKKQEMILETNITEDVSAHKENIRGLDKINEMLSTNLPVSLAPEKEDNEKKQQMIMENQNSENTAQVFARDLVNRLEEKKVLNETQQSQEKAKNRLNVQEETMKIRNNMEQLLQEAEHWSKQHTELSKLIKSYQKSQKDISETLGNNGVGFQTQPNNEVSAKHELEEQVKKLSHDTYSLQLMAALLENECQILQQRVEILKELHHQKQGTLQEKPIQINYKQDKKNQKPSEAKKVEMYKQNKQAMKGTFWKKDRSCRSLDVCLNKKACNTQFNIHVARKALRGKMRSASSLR

B1: Human Papillomavirus 1a L2 (other)
chain: MYRLRRKRAAPKDIYPSCKISNTCPPDIQNKIEHTTIADKILQYGSLGVFLGGLGIGTARGSGGRIGYTPLGEGGGVRVATRPTPVRPTIPVETVGPSEIFPIDVVDPTGPAVIPLQDLGRDFPIPTVQVIAEIHPISDIPNIVASSTNEGESAILDVLRGNATIRTVSRTQYNNPSFTVASTSNISAGEASTSDIVFVSNGSGDRVVGEDIPLVELNLGLETDTSSVVQETAFSSSTPIAERPSFRPSRFYNRRLYEQVQVQDPRFVEQPQSMVTFDNPAFEPELDEVSIIFQRDLDALAQTPVPEFRDVVYLSKPTFSREPGGRLRVSRLGKSSTIRTRLGTAIGARTHFFYDLSSIAPEDSIELLPLGEHSQTTVISSNLGDTAFIQGETAEDDLEVISLETPQLYSEEELLDTNESVGENLQLTITNSEGEVSILDLTQSRVRPPFGTEDTSLHVYYPNSSKGTPIINPEESFTPLVIIALNNSTGDFELHPSLRKRRKRAYV
notes: also called HPV 1a L2; cbe_252041
B2: Prey1053670 (other)
chain: MSSDERKAFLQFTTGCSTLPPGGLANLHPRLTVVRKVDATDASYPSVNTCVHYLKLPEYSSEEIMRERLLAATMEKGFHLN
notes: also called Homo sapiens, Similar to CG5604 gene product, clone MGC:11330; cbe_3606990
B3: Human Papillomavirus 1a E2 (other)
chain: MENLSSRLDLLQEQLMNLYEQDSKLIEDQIKQWNLIRQEQVLFHFARKNGVMRIGLQAVPSLASSQEKAKTAIEMVLHLESLKDSPYGTEDWSLQDTSRELFLAPPAGTFKKSGSTLEVTYDNNPDNQTRHTIWNHVYYQNGDDVWRKVSSGVDAVGVYYLEHDGYKNYYVLFAEEASKYSTTGQYAVNYRGKRFTNVMSSTSSPRAAGAPAVHSDYPTLSESDTAQQSTSIDYTELPGQGETSQVRQRQQKTPVRRRPYGRRRSRSPRGGGRREGESTPSRTPGSVPSARDVGSIHTTPQKGHSSRLRRLLQEAWDPPVVCVKGGANQLKCLRYRLKASTQVDFDSISTTWHWTDRKNTERIGSARMLVKFIDEAQREKFLERVALPRSVSVFLGQFNGS
notes: also called HPV 1a E2; cbe_251917
B4: RIL (other)
chain: MPHSVTLRGPSPWGFRLVGGRDFSAPLTISRVHAGSKAALAALCPGDLIQAINGESTELMTHLEAQNRIKGCHDHLTLSVSRPEGRSWPSAPDDSKAQAHRIHIDPEIQDGSPTTSRRPSGTGTGPEDGRPSLGSPYGQPPRFPVPHNGSSEATLPAQMSTLHVSPPPSADPARGLPRSRDCRVDLGSEVYRMLREPAEPVAAEPKQSGSFRYLQGMLEAGEGGDWPGPGGPRNLKPTASKLGAPLSGLQGLPECTRCGHGIVGTIVKARDKLYHPECFMCSDCGLNLKQRGYFFLDERLYCESHAKARVKPPEGYDVVAVYPNAKVELV
notes: also called cbe_4269628

Assays:
[1] = target: T1, EphB1; assay: Y2H; INT ID 448
[2] = target: T5, GSN (human, UniProt P06396 28-782); assay: Y2H; INT ID 449
T5 construct: also called cbe_4248793

[3] = target: T2, pumilio homolog 1 (Drosophila); assay: Y2H; INT ID 452
[4] = target: B1; assay: Y2H; INT ID 446
[5] = target: T3, hypothetical protein FLJ20259; assay: Y2H; INT ID 411
[6] = target: T6, ribosomal protein S10 (human, UniProt P46783 1-165); assay: Y2H; INT ID 412
T6 construct: also called RPS10; cbe_2826346

[7] = target: T7, ankylosis, progressive homolog (mouse) (human, UniProt Q9HCJ1 1-492); assay: Y2H; INT ID 417
T7 construct: also called ANKH; cbe_3641816

[8] = target: T4, testis-specific protein NYD-TSP1; assay: Y2H; INT ID 418
[9] = target: T8, GNB2L1 (human, UniProt P63244 1-317); assay: Y2H; INT ID 420
T8 construct: also called cbe_4269834

[10] = target: B1; assay: Y2H; INT ID 451

T5 sequence (P06396 28-782 limits assumed): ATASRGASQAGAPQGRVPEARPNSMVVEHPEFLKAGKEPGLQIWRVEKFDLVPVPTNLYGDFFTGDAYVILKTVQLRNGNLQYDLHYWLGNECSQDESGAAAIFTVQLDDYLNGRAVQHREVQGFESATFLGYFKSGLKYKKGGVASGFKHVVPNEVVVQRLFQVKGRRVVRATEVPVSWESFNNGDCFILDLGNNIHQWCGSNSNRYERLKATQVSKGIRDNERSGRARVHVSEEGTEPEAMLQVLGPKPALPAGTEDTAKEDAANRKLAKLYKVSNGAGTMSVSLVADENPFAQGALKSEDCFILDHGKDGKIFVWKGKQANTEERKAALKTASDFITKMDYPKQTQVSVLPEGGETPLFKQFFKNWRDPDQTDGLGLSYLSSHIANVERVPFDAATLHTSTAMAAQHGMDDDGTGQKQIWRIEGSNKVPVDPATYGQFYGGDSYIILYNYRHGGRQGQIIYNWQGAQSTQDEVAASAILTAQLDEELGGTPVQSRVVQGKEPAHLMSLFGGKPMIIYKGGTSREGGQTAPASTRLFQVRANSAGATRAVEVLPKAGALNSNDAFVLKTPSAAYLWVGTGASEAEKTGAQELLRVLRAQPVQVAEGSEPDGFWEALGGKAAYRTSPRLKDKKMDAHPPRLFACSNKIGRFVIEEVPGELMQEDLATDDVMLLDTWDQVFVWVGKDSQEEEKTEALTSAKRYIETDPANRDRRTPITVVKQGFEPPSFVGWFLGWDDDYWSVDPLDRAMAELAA
T7 sequence (Q9HCJ1 whole entry): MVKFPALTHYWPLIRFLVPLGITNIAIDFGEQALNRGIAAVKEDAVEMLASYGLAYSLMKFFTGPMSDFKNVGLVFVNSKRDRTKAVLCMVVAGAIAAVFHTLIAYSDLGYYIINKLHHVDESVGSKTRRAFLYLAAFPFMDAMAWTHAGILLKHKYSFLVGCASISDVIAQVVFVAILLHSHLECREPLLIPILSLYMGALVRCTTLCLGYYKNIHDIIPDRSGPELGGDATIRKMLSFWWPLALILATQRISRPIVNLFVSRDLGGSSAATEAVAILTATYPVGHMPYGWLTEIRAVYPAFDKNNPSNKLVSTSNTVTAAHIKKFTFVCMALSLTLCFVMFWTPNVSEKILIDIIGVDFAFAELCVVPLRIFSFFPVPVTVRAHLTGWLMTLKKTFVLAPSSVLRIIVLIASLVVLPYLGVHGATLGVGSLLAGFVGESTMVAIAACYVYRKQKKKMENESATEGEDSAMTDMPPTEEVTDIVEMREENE

B1: binds [1]; binds [2]; binds [3].

B2: binds [4].

B3: binds [5]; binds [6]; binds [7]. B3: binds [8]; binds [9].

B4: binds [10].

From patent US20050100554A1 (published 2005)
